Assay results from patent US20210154165.

Target: ARID1A (endogenous, ARID1A-wildtype cancer cell lysate) (UniProt O14497)
UniProt O14497, sequence (O14497 whole entry, looked up): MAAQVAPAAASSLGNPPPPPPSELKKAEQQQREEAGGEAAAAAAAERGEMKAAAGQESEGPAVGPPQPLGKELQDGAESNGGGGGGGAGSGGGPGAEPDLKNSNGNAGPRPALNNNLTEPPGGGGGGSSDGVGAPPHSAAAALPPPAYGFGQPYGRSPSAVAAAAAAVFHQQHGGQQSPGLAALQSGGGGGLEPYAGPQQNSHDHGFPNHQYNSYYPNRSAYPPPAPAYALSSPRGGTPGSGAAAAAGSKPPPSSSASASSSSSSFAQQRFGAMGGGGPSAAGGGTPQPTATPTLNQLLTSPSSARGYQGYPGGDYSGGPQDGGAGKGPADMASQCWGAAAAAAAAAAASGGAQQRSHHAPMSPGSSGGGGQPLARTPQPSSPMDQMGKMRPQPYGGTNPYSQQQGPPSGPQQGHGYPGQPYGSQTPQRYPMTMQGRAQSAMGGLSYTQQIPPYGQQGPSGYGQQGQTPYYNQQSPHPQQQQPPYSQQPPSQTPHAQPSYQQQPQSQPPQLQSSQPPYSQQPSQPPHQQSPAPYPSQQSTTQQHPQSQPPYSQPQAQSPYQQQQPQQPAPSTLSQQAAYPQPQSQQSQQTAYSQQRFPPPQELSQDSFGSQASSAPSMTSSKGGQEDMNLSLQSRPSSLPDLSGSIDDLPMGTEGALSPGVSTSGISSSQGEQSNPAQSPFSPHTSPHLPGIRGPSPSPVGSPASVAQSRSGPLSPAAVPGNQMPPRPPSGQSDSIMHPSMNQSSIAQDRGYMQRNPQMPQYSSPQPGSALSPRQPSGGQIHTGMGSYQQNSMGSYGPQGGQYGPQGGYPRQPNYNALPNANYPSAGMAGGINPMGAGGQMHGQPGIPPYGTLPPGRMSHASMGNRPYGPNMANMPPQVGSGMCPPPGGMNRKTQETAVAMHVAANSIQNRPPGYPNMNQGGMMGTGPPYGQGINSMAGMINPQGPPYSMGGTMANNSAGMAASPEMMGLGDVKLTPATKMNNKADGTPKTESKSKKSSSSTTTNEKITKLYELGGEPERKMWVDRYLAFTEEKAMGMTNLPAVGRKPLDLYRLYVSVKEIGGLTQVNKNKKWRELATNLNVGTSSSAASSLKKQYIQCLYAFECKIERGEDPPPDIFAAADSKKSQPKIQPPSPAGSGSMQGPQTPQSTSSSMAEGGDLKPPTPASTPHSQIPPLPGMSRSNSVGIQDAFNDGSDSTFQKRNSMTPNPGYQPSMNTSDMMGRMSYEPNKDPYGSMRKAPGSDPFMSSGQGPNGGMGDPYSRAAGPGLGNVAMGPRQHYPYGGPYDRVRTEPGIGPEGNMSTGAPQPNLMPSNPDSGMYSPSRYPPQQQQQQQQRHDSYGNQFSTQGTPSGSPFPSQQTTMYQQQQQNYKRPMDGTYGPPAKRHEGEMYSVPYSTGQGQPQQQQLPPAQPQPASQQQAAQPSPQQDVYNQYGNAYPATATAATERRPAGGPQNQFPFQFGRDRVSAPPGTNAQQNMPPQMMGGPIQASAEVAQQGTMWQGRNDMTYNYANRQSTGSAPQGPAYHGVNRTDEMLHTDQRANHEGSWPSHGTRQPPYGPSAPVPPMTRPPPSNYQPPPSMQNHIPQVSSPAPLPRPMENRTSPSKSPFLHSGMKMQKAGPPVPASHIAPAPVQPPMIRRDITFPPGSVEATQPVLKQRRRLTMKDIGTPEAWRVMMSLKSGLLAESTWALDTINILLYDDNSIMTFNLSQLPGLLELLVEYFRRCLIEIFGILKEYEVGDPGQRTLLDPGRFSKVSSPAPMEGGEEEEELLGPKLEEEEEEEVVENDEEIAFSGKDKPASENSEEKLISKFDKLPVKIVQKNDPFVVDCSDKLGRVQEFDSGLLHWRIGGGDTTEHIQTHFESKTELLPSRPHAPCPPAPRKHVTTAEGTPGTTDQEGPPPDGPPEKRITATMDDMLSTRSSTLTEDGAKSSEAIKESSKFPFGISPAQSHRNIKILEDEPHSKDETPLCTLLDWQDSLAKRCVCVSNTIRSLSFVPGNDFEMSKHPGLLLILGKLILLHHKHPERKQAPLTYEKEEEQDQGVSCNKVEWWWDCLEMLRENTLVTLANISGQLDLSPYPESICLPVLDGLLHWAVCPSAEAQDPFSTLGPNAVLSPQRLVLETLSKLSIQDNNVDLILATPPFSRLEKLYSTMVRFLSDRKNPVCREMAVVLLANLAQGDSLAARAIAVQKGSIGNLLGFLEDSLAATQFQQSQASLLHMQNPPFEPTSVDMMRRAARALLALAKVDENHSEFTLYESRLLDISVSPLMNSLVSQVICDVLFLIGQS

Carbamoyl-phosphate synthetase 2, Aspartate transcarbamoylase, and Dihydroorotase (CAD) (endogenous)
total CAD and phosphorylated CAD (Serine-1859) protein levels by immunoblot after ARID1A knockdown or restoration: wildtype ARID1A functions as a negative regulator of CAD, wherein ARID1A deficiency results in an increase in total and phosphorylated CAD
